Experimental data taken from patent US20250262210A1 (TRUSTEES OF COLUMBIA UNIVERSITY IN THE CITY OF NEW YORK, published 2025).

Assays:
Assay in all cases: IP/MS, LZTR1 wild type-FLAG, U87
HERC2 = HERC2 (human, UniProt O95714 1-4834)
Method in brief: (§1)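 Read-out: spectral counts from LC-MS/MS (Orbitrap Fusion) after MaxQuant identification. Variable modifications were Met oxidation, protein N-terminal acetylation and N/Q deamidation.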

USP4 = target: T1, USP4 (human, UniProt Q13107 1-963, limits assumed)
T1 sequence (looked up): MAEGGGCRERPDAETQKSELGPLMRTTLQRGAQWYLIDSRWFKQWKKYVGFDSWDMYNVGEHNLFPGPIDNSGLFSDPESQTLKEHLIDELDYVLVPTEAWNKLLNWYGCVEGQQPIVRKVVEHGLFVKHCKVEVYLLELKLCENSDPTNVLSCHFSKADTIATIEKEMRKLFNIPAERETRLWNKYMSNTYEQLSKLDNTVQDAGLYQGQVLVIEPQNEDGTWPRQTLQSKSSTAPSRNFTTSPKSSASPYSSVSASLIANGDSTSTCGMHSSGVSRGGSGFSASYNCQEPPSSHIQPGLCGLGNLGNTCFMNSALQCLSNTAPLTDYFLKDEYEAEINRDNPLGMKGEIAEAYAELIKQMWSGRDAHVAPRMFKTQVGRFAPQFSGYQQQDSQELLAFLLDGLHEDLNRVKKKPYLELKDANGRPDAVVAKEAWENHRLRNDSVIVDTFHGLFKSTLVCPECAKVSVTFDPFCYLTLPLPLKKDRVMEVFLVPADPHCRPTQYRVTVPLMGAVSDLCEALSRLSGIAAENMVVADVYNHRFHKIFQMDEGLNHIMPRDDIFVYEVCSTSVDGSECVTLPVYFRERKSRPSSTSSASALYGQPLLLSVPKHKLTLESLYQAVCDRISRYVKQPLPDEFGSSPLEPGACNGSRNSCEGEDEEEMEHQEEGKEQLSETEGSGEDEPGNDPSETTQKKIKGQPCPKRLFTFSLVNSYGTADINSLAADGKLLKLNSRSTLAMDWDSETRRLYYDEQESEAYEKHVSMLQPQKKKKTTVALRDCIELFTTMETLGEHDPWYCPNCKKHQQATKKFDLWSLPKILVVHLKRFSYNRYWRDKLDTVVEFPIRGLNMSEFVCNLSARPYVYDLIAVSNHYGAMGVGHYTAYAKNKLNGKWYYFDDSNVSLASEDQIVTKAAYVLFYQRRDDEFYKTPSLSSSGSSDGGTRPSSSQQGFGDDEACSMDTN
Method in brief: as §1

POLR3A = target: T2, POLR3A (human, UniProt O14802 1-1390)
T2 sequence (looked up): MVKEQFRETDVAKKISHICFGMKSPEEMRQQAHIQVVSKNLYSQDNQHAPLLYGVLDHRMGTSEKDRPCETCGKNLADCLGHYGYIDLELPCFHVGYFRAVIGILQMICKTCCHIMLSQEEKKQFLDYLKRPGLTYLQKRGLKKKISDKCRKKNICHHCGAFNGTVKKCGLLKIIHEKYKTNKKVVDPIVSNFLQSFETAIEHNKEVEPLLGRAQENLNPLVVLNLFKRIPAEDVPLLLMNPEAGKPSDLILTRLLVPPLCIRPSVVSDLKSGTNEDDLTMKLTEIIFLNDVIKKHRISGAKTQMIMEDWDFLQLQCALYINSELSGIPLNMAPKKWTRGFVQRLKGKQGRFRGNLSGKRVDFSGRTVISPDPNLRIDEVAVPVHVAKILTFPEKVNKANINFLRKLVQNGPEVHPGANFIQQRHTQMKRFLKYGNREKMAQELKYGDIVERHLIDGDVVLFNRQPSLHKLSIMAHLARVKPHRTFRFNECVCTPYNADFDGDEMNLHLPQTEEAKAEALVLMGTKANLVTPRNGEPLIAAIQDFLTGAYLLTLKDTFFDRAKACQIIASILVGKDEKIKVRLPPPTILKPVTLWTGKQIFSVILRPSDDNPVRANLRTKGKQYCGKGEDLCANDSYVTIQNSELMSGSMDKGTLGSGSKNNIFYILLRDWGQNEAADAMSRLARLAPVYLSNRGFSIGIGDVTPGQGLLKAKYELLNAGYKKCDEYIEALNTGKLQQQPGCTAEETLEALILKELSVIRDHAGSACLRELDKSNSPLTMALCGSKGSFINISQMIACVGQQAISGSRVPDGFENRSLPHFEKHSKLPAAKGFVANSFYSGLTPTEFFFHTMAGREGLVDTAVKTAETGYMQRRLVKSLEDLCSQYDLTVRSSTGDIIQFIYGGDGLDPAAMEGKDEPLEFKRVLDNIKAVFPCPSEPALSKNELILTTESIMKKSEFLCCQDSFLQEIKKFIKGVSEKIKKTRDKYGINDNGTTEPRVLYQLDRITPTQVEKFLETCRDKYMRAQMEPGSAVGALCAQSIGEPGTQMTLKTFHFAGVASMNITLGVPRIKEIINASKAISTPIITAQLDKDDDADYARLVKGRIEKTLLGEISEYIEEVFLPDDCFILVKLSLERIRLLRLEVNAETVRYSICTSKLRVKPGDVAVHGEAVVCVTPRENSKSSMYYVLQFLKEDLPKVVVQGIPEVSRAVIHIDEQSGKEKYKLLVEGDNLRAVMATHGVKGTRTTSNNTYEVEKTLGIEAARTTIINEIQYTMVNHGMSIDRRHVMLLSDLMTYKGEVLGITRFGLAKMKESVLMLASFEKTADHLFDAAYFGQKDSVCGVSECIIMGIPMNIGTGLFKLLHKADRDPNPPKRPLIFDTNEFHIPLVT
Method in brief: as §1

Measured: binding result

Sequence of HERC2 (O95714 whole entry, the tested form may be a part): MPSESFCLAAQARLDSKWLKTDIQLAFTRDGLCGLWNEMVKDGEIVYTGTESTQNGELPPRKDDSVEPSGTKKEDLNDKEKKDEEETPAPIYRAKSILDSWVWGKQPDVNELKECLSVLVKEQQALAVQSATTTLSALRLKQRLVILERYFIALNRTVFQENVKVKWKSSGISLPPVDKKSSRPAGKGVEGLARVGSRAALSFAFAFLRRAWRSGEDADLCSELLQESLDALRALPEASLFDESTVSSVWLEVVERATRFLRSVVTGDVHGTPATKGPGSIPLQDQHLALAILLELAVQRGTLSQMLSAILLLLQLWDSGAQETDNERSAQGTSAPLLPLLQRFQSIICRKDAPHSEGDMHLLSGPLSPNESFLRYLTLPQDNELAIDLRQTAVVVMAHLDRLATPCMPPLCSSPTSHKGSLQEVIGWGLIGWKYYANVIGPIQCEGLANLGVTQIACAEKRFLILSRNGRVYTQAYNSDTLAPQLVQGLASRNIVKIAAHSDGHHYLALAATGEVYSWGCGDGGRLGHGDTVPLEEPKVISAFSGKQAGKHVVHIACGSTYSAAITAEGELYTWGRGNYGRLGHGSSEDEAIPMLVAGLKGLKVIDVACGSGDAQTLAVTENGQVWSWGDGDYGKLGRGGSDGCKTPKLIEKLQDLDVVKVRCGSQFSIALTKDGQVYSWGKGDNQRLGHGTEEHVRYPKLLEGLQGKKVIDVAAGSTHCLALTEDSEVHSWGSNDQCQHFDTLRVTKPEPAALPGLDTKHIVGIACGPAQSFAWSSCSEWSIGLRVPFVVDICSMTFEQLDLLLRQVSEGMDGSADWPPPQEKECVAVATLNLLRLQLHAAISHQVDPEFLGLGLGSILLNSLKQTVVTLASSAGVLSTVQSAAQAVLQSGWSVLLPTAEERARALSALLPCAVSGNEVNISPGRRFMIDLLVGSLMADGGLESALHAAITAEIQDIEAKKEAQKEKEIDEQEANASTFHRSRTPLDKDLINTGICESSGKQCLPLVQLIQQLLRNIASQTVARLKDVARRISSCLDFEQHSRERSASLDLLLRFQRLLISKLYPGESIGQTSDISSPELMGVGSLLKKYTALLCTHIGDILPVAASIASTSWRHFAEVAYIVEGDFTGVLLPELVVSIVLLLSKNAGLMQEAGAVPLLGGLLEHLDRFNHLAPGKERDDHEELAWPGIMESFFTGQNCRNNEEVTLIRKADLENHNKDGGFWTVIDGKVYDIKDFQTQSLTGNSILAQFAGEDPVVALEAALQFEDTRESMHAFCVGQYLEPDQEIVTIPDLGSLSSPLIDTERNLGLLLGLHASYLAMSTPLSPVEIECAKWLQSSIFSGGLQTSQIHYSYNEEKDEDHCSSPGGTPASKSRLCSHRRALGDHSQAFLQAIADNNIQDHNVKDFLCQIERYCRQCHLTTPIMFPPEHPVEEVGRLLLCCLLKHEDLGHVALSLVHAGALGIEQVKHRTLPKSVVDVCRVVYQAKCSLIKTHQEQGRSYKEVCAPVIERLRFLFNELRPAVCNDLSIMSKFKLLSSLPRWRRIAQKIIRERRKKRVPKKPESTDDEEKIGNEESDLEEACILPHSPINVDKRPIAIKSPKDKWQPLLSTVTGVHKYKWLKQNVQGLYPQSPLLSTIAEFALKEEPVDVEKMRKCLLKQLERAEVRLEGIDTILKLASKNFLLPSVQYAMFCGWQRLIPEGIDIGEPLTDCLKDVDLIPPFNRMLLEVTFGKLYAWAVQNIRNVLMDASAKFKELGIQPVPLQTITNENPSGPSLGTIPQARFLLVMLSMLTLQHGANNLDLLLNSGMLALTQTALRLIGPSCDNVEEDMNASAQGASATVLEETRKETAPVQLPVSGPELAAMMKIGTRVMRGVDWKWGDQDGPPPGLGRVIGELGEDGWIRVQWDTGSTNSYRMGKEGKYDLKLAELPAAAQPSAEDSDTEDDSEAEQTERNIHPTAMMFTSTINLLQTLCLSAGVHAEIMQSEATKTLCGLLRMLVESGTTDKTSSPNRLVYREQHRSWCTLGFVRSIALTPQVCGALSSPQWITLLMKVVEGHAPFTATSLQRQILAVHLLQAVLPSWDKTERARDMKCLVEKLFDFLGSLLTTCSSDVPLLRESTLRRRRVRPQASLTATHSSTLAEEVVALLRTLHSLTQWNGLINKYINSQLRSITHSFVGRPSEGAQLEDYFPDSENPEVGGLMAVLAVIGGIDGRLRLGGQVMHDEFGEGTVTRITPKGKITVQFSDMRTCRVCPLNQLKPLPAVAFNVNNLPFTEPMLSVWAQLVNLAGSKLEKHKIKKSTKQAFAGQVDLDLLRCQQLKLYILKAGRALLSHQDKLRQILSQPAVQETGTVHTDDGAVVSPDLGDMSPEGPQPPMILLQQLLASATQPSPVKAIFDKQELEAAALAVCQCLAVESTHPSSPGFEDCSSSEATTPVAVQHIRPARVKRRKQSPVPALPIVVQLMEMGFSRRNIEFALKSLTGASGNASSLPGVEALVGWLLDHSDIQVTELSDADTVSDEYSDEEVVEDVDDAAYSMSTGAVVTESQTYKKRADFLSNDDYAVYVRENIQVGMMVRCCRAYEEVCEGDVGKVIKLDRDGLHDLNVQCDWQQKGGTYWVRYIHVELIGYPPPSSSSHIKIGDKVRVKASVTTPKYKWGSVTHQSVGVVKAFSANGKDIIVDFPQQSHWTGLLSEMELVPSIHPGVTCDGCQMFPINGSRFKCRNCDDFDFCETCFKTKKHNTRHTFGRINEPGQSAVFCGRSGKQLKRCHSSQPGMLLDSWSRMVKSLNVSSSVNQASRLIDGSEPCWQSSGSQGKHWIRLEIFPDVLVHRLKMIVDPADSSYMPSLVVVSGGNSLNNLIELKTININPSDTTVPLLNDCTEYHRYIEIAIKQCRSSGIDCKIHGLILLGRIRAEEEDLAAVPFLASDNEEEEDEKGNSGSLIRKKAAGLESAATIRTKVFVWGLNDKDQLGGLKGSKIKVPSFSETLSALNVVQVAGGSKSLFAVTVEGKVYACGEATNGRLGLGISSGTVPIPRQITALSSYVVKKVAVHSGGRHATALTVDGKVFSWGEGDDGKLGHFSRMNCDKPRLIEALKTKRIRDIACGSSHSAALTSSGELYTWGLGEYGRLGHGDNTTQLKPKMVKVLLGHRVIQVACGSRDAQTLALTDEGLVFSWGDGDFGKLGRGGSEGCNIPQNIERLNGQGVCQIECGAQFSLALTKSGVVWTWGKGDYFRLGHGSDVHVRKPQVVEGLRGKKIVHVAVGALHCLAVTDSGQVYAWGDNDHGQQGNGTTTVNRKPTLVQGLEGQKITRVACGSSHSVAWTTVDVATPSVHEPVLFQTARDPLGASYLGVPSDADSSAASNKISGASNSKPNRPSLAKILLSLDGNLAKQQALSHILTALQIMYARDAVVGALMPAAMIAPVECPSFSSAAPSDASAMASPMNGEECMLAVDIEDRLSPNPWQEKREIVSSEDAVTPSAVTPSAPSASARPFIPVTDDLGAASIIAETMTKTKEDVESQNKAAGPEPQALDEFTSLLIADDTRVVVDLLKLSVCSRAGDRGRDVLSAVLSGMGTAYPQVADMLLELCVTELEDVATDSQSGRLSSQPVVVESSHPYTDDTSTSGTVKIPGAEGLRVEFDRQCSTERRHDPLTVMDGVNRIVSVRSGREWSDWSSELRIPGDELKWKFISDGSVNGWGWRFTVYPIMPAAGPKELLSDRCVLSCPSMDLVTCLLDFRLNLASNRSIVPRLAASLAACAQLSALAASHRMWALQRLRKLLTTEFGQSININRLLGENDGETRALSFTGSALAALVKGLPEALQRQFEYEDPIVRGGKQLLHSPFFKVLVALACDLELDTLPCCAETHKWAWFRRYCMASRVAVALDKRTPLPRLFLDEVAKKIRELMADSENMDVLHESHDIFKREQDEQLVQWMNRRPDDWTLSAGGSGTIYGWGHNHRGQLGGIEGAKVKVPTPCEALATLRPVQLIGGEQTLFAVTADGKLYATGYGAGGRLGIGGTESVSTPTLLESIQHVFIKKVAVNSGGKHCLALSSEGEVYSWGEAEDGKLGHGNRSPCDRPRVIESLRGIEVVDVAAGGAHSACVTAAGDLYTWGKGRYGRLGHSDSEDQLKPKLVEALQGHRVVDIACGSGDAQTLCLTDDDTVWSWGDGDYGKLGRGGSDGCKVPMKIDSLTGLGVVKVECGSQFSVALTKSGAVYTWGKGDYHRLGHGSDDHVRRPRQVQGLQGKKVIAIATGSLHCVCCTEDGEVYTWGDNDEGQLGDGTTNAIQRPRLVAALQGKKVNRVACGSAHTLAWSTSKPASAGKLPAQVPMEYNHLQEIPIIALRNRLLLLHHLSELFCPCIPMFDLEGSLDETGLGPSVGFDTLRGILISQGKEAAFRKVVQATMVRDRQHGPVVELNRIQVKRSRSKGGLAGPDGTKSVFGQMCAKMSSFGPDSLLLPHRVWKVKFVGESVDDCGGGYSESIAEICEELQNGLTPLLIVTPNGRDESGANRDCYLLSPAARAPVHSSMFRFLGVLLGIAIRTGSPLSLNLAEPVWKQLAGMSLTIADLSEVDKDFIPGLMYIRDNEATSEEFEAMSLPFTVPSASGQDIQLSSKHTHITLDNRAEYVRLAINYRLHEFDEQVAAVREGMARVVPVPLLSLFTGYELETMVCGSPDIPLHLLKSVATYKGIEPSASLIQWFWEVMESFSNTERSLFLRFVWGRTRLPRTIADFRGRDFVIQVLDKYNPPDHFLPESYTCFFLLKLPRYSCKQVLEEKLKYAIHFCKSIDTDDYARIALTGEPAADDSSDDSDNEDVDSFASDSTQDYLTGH

B1: LZTR1-FLAG (other, human, UniProt Q8N653 1-840, looked up)
chain: MAGPGSTGGQIGAAALAGGARSKVAPSVDFDHSCSDSVEYLTLNFGPFETVHRWRRLPPCDEFVGARRSKHTVVAYKDAIYVFGGDNGKTMLNDLLRFDVKDCSWCRAFTTGTPPAPRYHHSAVVYGSSMFVFGGYTGDIYSNSNLKNKNDLFEYKFATGQWTEWKIEGRLPVARSAHGATVYSDKLWIFAGYDGNARLNDMWTIGLQDRELTCWEEVAQSGEIPPSCCNFPVAVCRDKMFVFSGQSGAKITNNLFQFEFKDKTWTRIPTEHLLRGSPPPPQRRYGHTMVAFDRHLYVFGGAADNTLPNELHCYDVDFQTWEVVQPSSDSEVGGAEVPERACASEEVPTLTYEERVGFKKSRDVFGLDFGTTSAKQPTQPASELPSGRLFHAAAVISDAMYIFGGTVDNNIRSGEMYRFQFSCYPKCTLHEDYGRLWESRQFCDVEFVLGEKEECVQGHVAIVTARSRWLRRKITQARERLAQKLEQEAAPVPREAPGVAAGGARPPLLHVAIREAEARPFEVLMQFLYTDKIKYPRKGHVEDVLLIMDVYKLALSFQLCRLEQLCRQYIEASVDLQNVLVVCESAARLQLSQLKEHCLNFVVKESHFNQVIMMKEFERLSSPLIVEIVRRKQQPPPRTPLDQPVDIGTSLIQDMKAYLEGAGAEFCDITLLLDGHPRPAHKAILAARSSYFEAMFRSFMPEDGQVNISIGEMVPSRQAFESMLRYIYYGEVNMPPEDSLYLFAAPYYYGFYNNRLQAYCKQNLEMNVTVQNVLQILEAADKTQALDMKRHCLHIIVHQFTKVSKLPTLRSLSQQLLLDIIDSLASHISDKQCAELGADI
notes: Expressed in HEK 293T, HeLa or U87 cells; used as cell lysate; also called LZTR1 wild type-FLAG; LZTR1 WT; not shown: FLAG tag at the C-terminus
binds: all assays above
